From article PMC10789646, “Uncovering the non-histone interactome of the BRPF1 bromodomain using site-specific azide-acetyllysine photochemistry” (The Journal of Biological Chemistry, 2023) come the findings set out here.

To fix the notation:
B1: WT BRPF1 bromodomain (domain or fragment)
chain: MEMQLTPFLILLRKTLEQLQEKDTGNIFSEPVPLSEVPDYLDHIKKPMDFFTMKQNLEAYRYLNFDDFEEDFNLIVSNCLKYNAKDTIFYRAAVRLREQGGAVLRQARRQAEKMG
notes: bromodomain of bromodomain-PHD finger protein 1 (BRPF1); vector pNIC28-Bsa4; also called bromodomain-PHD finger protein 1 bromodomain; source: E. coli One Shot BL21 star (DE3), purified (Ni-NTA, Superdex-75)

Where no end group is shown, it is not given here.

Test [1] addresses histone H4K5acK8ac peptide 2 (acetyl-lysine at K5 and K8). The test can be described thus: ITC; peptide (1.5 to 1.8 mM, syringe) injected into protein (80 to 100 μM, cell); 15 °C; 50 mM Hepes pH 7.5, 200 mM NaCl, 5% glycerol; single-binding site model. To be noted: both partners purified.
The test “WT BRPF1 bromodomain” addresses B1. The test is described as above. To be noted: both partners purified.

In test [1], B1 had a Kd of 24.6 ± 3.1 µM.

B2: BRPF1 bromodomain N651AzF (domain or fragment)
chain: MEMQLTPFLILLRKTLEQLQEKDTGFIFSEPVPLSEVPDYLDHIKKPMDFFTMKQNLEAYRYLNFDDFEEDFNLIVSNCLKYNAKDTIFYRAAVRLREQGGAVLRQARRQAEKMG
modifications: 4-azido-L-phenylalanine (AzF) at 651
notes: bromodomain of BRPF1 with the unnatural amino acid 4-azido-L-phenylalanine in place of N651; also called BRPF1-N651AzF; engineered BRPF1 bromodomain; source: E. coli One Shot BL21 Star (DE3) with pEVOL-pAzF (amber suppression), purified (Ni-NTA, Superdex-75); not shown: 6xHis, N-terminal, kept
Turning to B2, binding in test [1] was put at a Kd of 21.6 ± 2.1 µM.

B3: diacetylated ILF3 peptide 8 (peptide)
peptide: RVGLVAK(Ac)GLLLK(Ac)G
notes: holds the KGLLLK (100-105) motif; also called RVGLVAKacGLLLKacG 8; source: synthetic peptide (GL Biochem Ltd and S. Biochem Ltd, HPLC purified)
In the case of B3, in the test with WT BRPF1 bromodomain, the Kd amounted to 250 ± 10.2 µM.

The term Kd denotes the concentration at which binding is half-saturated. Low values mean tighter binding, high ones weaker binding.
